Test results as given in article PMC1474052.

Legend:
[1] = target: BPV-1 E1 helicase domain F464A (bovine papillomavirus type 1 (BPV-1)); test: SEC
[2] = target: BPV-1 E1 helicase domain F464W (bovine papillomavirus type 1 (BPV-1)); test: SEC
[3] = target: BPV-1 E1 helicase domain H507A (bovine papillomavirus type 1 (BPV-1)); test: SEC
[4] = target: BPV-1 E1 helicase domain K506A (bovine papillomavirus type 1 (BPV-1)); test: SEC
[5] = target: BPV-1 E1 helicase domain R505E (bovine papillomavirus type 1 (BPV-1)); test: SEC
[6] = target: BPV-1 E1 helicase domain W465F (bovine papillomavirus type 1 (BPV-1)); test: SEC
[7] = target: BPV-1 E1 helicase domain, wild type (bovine papillomavirus type 1 (BPV-1)); test: SEC
[8] = target: E1HD wild-type (Bovine papillomavirus 1 (BPV-1), UniProt P03116 299-605); test: EMSA

Molecule “BPV-1 E1 helicase domain F464A (domain or fragment)” has a stoichiometry N [1] of 6.

Molecule “BPV-1 E1 helicase domain F464W (domain or fragment)” has a stoichiometry N [2] of 6.

Work on “BPV-1 E1 helicase domain H507A (domain or fragment)” yielded a stoichiometry N [3] of 6.

Work on “BPV-1 E1 helicase domain K506A (domain or fragment)” yielded a stoichiometry N [4] of 6.

“BPV-1 E1 helicase domain R505E (domain or fragment)” showed a stoichiometry N [5] of 6.

Molecule “BPV-1 E1 helicase domain W465F (domain or fragment)” has a stoichiometry N [6] of 6.

With “BPV-1 E1 helicase domain, wild type (domain or fragment)” the stoichiometry N [7] was 6.

TGCTCTAGAATGCAAACTACTCTGAACGAG (ssDNA) [30mer ssDNA]: binds [8].
